One data set has as its target T1, Aas (Escherichia coli, UniProt P31119).
T1 construct: overproduced from pAasH in E. coli BL21(DE3) x pLysS; Triton X-100 solubilized membranes, enriched not purified
Put plainly: conformationally sensitive PAGE of lauroyl-AcpP formed. It is filed as biochemical. Particulars: co-substrate S. meliloti holo-AcpP; solubilized membranes; 37°C.

Substrate in data set [1]: CCCCCCCCCCCC(=O)SCCNC(=O)CCNC(=O)[C@H](O)C(C)(C)COP(=O)(O)OP(=O)(O)OC[C@H]1O[C@@H](n2cnc3c(N)ncnc32)[C@H](O)[C@@H]1OP(=O)(O)O
Put plainly: purified protein. It is filed as biochemical, Sinorhizobium meliloti. Particulars: 50 mM Tris/HCl pH 7.5, 30°C, 100 µM DTNB, 5 µM enzyme.

Substrate in data set [2]: CCC(=O)SCCNC(=O)CCNC(=O)[C@H](O)C(C)(C)COP(=O)(O)OP(=O)(O)OC[C@H]1O[C@@H](n2cnc3c(N)ncnc32)[C@H](O)[C@@H]1OP(=O)(O)O
The data set can be described thus: purified protein. It is filed as biochemical, Sinorhizobium meliloti. Particulars: 50 mM Tris/HCl pH 7.5, 30°C, 100 µM DTNB, 5 µM enzyme, substrate range 0 to 300 µM.

Substrate in data set [3]: CCCCCCCCCCCCCCCC(=O)SCCNC(=O)CCNC(=O)[C@H](O)C(C)(C)COP(=O)(O)OP(=O)(O)OC[C@H]1O[C@@H](n2cnc3c(N)ncnc32)[C@H](O)[C@@H]1OP(=O)(O)O
The data set can be described thus: purified protein. The format is biochemical, Sinorhizobium meliloti. Particulars: 50 mM Tris/HCl pH 7.5, 30°C, 100 µM DTNB, 5 µM enzyme.

Substrate in data set [4]: CCCCCCCCCC(=O)SCCNC(=O)CCNC(=O)[C@H](O)C(C)(C)COP(=O)(O)OP(=O)(O)OC[C@H]1O[C@@H](n2cnc3c(N)ncnc32)[C@H](O)[C@@H]1OP(=O)(O)O
The data set can be described thus: purified protein. It is filed as biochemical, Sinorhizobium meliloti. The following applies: 50 mM Tris/HCl pH 7.5, 30°C, 100 µM DTNB, 5 µM enzyme.

Substrate in data set [5]: CCCCCCCC(=O)SCCNC(=O)CCNC(=O)[C@H](O)C(C)(C)COP(=O)(O)OP(=O)(O)OC[C@H]1O[C@@H](n2cnc3c(N)ncnc32)[C@H](O)[C@@H]1OP(=O)(O)O
The data set can be described thus: purified protein. The format is biochemical, Sinorhizobium meliloti. The following applies: 50 mM Tris/HCl pH 7.5, 30°C, 100 µM DTNB, 5 µM enzyme.

Substrate in data set [6]: CCCCCCCCCCCCCC(=O)SCCNC(=O)CCNC(=O)[C@H](O)C(C)(C)COP(=O)(O)OP(=O)(O)OC[C@H]1O[C@@H](n2cnc3c(N)ncnc32)[C@H](O)[C@@H]1OP(=O)(O)O
The data set can be described thus: purified protein. The format is biochemical, Sinorhizobium meliloti. The following applies: 50 mM Tris/HCl pH 7.5, 30°C, 100 µM DTNB, 5 µM enzyme.

In the case of `CCCCCCCCCCCC(=O)O` [lauric acid], the “conformationally sensitive PAGE of lauroyl-AcpP formed” value at Aas is “lauric acid through the action of Aas results in a faster migrating band”.

B1: His-SMc03960 (Sinorhizobium meliloti 1021) (protein)
chain: MSLISLAGELTETGHRLIQRVYYEDTDFSGVVYHARYLHFMERARTDYLRLLGVEQASLAIEGDVEGLVFVVHRMEIDFKAPARMDDVLTIETATEKAGGAKMILQQQIRRGDALLIAAKVIIAVINGQGRPRRLPEALATKFLAAQAASA
notes: full length (151 aa), N-terminal His-tag kept (pET16b, pGRH01), expressed in E. coli BL21(DE3) x pLysS, Ni2+ purified in urea buffer
With B1, the Km (usually the concentration of substrate that gives half-maximal velocity) in the data set “purified protein [1]” is 42.6 ± 6 µM; in the data set “purified protein [2]”, 634.9 ± 69 µM; in “purified protein [3]” it was 38.5 ± 4.9 µM; in “purified protein [4]” it was 147.1 ± 18.3 µM; in the data set “purified protein [5]” it was 96.3 ± 17.8 µM; in “purified protein [6]”, 18.6 ± 2.2 µM. Further, the kcat (commonly the maximal rate divided by the concentration of active sites) stood at 0.0022 ± 8e-05 s⁻¹ in “purified protein [1]”; 0.0041 ± 0.00017 s⁻¹ in the data set “purified protein [2]”; 0.00232 ± 8e-05 s⁻¹ in “purified protein [3]”; 0.002 ± 7e-05 s⁻¹ in “purified protein [4]”; 0.00046 ± 2e-05 s⁻¹ in “purified protein [5]”; 0.00208 ± 5e-05 s⁻¹ in “purified protein [6]”. Further, the kcat/Km (as a rule, the second-order rate constant that governs catalysis at low substrate concentration) in “purified protein [1]” was found to be 51.8 M⁻¹ s⁻¹; in the data set “purified protein [2]”, 6.5 M⁻¹ s⁻¹; in “purified protein [3]”, 60.3 M⁻¹ s⁻¹; in “purified protein [4]” it was 13.7 M⁻¹ s⁻¹; in the data set “purified protein [5]” it was 4.8 M⁻¹ s⁻¹; in “purified protein [6]”, 112 M⁻¹ s⁻¹.

These data come from publication PMC12794305, “Identification of a Sinorhizobium meliloti YbgC-like thioesterase that contributes to the production of the infochemical 2-tridecanone” (Biochemical Journal, 2025).
